In US20190338048A1:
“And” between values parts separate entries of the source, which are not always exact repeats. Equal entries are not always repeated. Where two headings read alike, the source gives them in different places. Values belong to the substance of their own block, whether it stands above or below them.

Assays:
[1] = molecular target: CR8071 lambda light chain (L1) with V133G_S176R, design 2188, System C; experiment: SMCA, LC-MS
[2] = molecular target: CR8071 lambda light chain (L1) with V133G_S176R, design 2188, System C
[3] = molecular target: CR8071 lambda light chain (L1) with E124K_Y178R, design 2830, System C; experiment: SMCA, LC-MS
[4] = molecular target: CR8071 lambda light chain (L1) with E124K_Y178R, design 2830, System C
[5] = molecular target: CR8071 lambda light chain (L1) with E124R, design 2826; experiment: SMCA LC-MS, System C
[6] = molecular target: CR8071 lambda light chain (L1) with E124R, design 2826; experiment: SMCA: co-expression
[7] = molecular target: CR8071 lambda light chain (L1) with S180E, designs 2816 and 2827; experiment: SMCA LC-MS, System C
[8] = molecular target: CR8071 lambda light chain (L1) with S180E, designs 2816 and 2827; experiment: SMCA: H1, L1, H2, L2 co-expressed in CHO-3E7
[9] = molecular target: CR8071 lambda light chain (L1) with S180E, designs 2816 and 2827; experiment: SMCA: co-expression
[10] = molecular target: CR8071 lambda light chain L1, design 2188 (V133G_S176R); experiment: SMCA, System C, LC-MS
[11] = molecular target: CR8071 lambda light chain L1, design 2188 (V133G_S176R); experiment: SMCA, System C
[12] = molecular target: Pertuzumab light chain (kappa) V133G_S176D, HA-tagged; experiment: LCCA
[13] = molecular target: Pertuzumab light chain (kappa) V133G_S176D, HA-tagged; experiment: LCCA; remark: listed apart in the source
[14] = molecular target: CAT-2200 light chain (lambda) V133I_L135K, FLAG-tagged; experiment: LCCA
[15] = molecular target: CAT-2200 light chain (lambda) V133I_L135R_Y178F, FLAG-tagged; experiment: LCCA
[16] = molecular target: CAT-2200 light chain (lambda) Y178K, FLAG-tagged; experiment: LCCA
[17] = molecular target: Pertuzumab light chain (kappa) V133G_S176D, HA-tagged; experiment: LCCA; remark: listed apart in the source
[18] = molecular target: SGN-CD19a kappa light chain (L2) with V133G_S176D, design 2188, Systems B and C; experiment: SMCA, LC-MS
[19] = molecular target: SGN-CD19a kappa light chain (L2) with V133G_S176D, design 2188, Systems B and C
[20] = molecular target: SGN-CD19a kappa light chain (L2) with T178E_T180E, design 2830, System C; experiment: SMCA, LC-MS
[21] = molecular target: SGN-CD19a kappa light chain (L2) with T178E_T180E, design 2830, System C
[22] = molecular target: SGN-CD19a kappa light chain (L2) with Q124R_Q160K_T178R, design 2816; experiment: SMCA LC-MS, System C
[23] = molecular target: SGN-CD19a kappa light chain (L2) with Q124R_Q160K_T178R, design 2816; experiment: SMCA: co-expression
[24] = molecular target: SGN-CD19a kappa light chain (L2) with Q124K_T178R, design 2827; experiment: SMCA LC-MS, System B
[25] = molecular target: SGN-CD19a kappa light chain (L2) with Q124K_T178R, design 2827; experiment: SMCA LC-MS, System C
[26] = molecular target: SGN-CD19a kappa light chain (L2) with Q124E_Q160E_T180E, design 2826; experiment: SMCA LC-MS, System B
[27] = molecular target: SGN-CD19a kappa light chain (L2) with Q124E_Q160E_T180E, design 2826; experiment: SMCA LC-MS, System C
[28] = molecular target: SGN-CD19a kappa light chain (L2) with Q124E_Q160E_T180E, design 2826; experiment: SMCA: co-expression
[29] = molecular target: SGN-CD19a kappa light chain (L2) with T178E_T180E, design 2830; experiment: SMCA LC-MS, System B
[30] = molecular target: SGN-CD19a kappa light chain (L2) with T178E_T180E, design 2830; experiment: SMCA: co-expression
[31] = molecular target: SGN-CD19a kappa light chain L2, design 2188 (V133G_S176D); experiment: SMCA, System C, LC-MS
[32] = molecular target: SGN-CD19a kappa light chain L2, design 2188 (V133G_S176D); experiment: SMCA, System C
[33] = molecular target: SGN-CD19a kappa light chain L2, design 2816 (Q124R_Q160K_T178R); experiment: SMCA, System B, LC-MS
[34] = molecular target: SGN-CD19a kappa light chain L2, design 2816 (Q124R_Q160K_T178R); experiment: SMCA, System C, LC-MS
[35] = molecular target: SGN-CD19a kappa light chain L2, design 2816 (Q124R_Q160K_T178R); experiment: SMCA, System B
[36] = molecular target: SGN-CD19a kappa light chain L2, design 2816 (Q124R_Q160K_T178R); experiment: SMCA, System C
[37] = molecular target: SGN-CD19a kappa light chain L2, design 2827 (Q124K_T178R); experiment: SMCA, System B, LC-MS
[38] = molecular target: SGN-CD19a kappa light chain L2, design 2827 (Q124K_T178R); experiment: SMCA, System C, LC-MS
[39] = molecular target: SGN-CD19a kappa light chain L2, design 2827 (Q124K_T178R); experiment: SMCA, System B
[40] = molecular target: SGN-CD19a kappa light chain L2, design 2827 (Q124K_T178R); experiment: SMCA, System C
[41] = molecular target: SGN-CD19a kappa light chain L2, design 2830 (T178E_T180E); experiment: SMCA, System B, LC-MS
[42] = molecular target: SGN-CD19a kappa light chain L2, design 2830 (T178E_T180E); experiment: SMCA, System B

Change in % H1L1 Pairing with respect to wild type [1]: -23.5%
% H1L1 Pairing [2]: 24.9%
Substance: CR8071 full-length IgG1 heavy chain (H1) with L124E, design 2188, System C

Change in % H1L1 Pairing with respect to wild type [3]: -20.4%
% H1L1 Pairing [4]: 28%
Substance: CR8071 full-length IgG1 heavy chain (H1) with L143E_K145T_Q179E, design 2830, System C

Change in % H1L1 Pairing with respect to wild type [5]: -40.3%
% H1L1 Pairing [6]: 27.8%
Substance: CR8071 heavy chain (H1, lambda arm) with L143E_K145T, design 2826, full-length IgG1 with heterodimeric Fc

Change in % H1L1 Pairing with respect to wild type [7]: 17%
% H1L1 Pairing [8]: 99.3%
Substance: CR8071 heavy chain (H1, lambda arm) with Q179K, design 2816, full-length IgG1 with heterodimeric Fc

Change in % H1L1 Pairing with respect to wild type [7]: 15.9%
% H1L1 Pairing [9]: 98.2%
Substance: CR8071 heavy chain (H1, lambda arm) with S186R, design 2827, full-length IgG1 with heterodimeric Fc

Change in % H1L1 Pairing with respect to wild type [10]: -23.5%
% H1L1 Pairing [11]: 24.9%
Substance: CR8071 heavy chain H1, design 2188 (L124E)

H2L2:H2L1 normalized median ratio, H2L2 share [12]: 84%
H2L2:H2L1 normalized median scalar value ln(r1/f1) [12]: 1.68
H2L2:H2L1 normalized median ratio, H2L2 share [13]: 83%
H2L2:H2L1 normalized median scalar value ln(r1/f1) [13]: 1.56
H2L2:H2L1 normalized median ratio (H2L1 share) [14]: 14%
H2L2:H2L1 normalized median ratio (H2L1 share) [15]: 17%
H2L2:H2L1 normalized median ratio (H2L1 share) [16]: 16%
H2L2:H2L1 normalized median ratio, H2L2 share [17]: 86%
H2L2:H2L1 normalized median scalar value ln(r1/f1) [17]: 1.8
Substance: Pertuzumab heavy chain Fab construct L124R

Change in % H2L2 Pairing with respect to wild type [18]: 38.7% and 19.9%
% H2L2 Pairing [19]: 92.9% and 99.5%
Substance: SGN-CD19a full-length IgG1 heavy chain (H2) with L124R, design 2188, Systems B and C

Change in % H2L2 Pairing with respect to wild type [20]: 20%
% H2L2 Pairing [21]: 99.6%
Substance: SGN-CD19a full-length IgG1 heavy chain (H2) with S186R, design 2830, System C

Change in % H2L2 Pairing with respect to wild type [22]: 19.8%
% H2L2 Pairing [23]: 79.7%
Substance: SGN-CD19a heavy chain (H2, kappa arm) with L143E_K145T, design 2816, full-length IgG1 with heterodimeric Fc

Change in % H2L2 Pairing with respect to wild type [24]: -15.3%
Change in % H2L2 Pairing with respect to wild type [25]: 25.1%
Substance: SGN-CD19a heavy chain (H2, kappa arm) with L143E_K145T_Q179E, design 2827, full-length IgG1 with heterodimeric Fc

Change in % H2L2 Pairing with respect to wild type [26]: 35.5%
Change in % H2L2 Pairing with respect to wild type [27]: 26.7%
% H2L2 Pairing [28]: 89.7% and 98%
Substance: SGN-CD19a heavy chain (H2, kappa arm) with Q179K, design 2826, full-length IgG1 with heterodimeric Fc

Change in % H2L2 Pairing with respect to wild type [29]: 44.3%
% H2L2 Pairing [30]: 98.5%
Substance: SGN-CD19a heavy chain (H2, kappa arm) with S186R, design 2830, full-length IgG1 with heterodimeric Fc

Change in % H2L2 Pairing with respect to wild type [31]: 19.9%
% H2L2 Pairing [32]: 99.5%
Substance: SGN-CD19a heavy chain H2, design 2188 (L124R)

Change in % H2L2 Pairing with respect to wild type [33]: -12.5%
Change in % H2L2 Pairing with respect to wild type [34]: 19.8%
% H2L2 Pairing [35]: 25.1%
% H2L2 Pairing [36]: 79.7%
Substance: SGN-CD19a heavy chain H2, design 2816 (L143E_K145T)

Change in % H2L2 Pairing with respect to wild type [37]: -15.3%
Change in % H2L2 Pairing with respect to wild type [38]: 25.1%
% H2L2 Pairing [39]: 22.3%
% H2L2 Pairing [40]: 85%
Substance: SGN-CD19a heavy chain H2, design 2827 (L143E_K145T_Q179E)

Change in % H2L2 Pairing with respect to wild type [41]: 44.3%
% H2L2 Pairing [42]: 98.5%
Substance: SGN-CD19a heavy chain H2, design 2830 (S186R)
